The values that follow come from patent US20090232830A1.

Common to all, as to assay: cell-based or functional assay
Assay [1] has as its target 24/00/4 envelope protein (HIV-1).
For assay [2], the target named is LY109 envelope protein (HIV-1).
In assay [3] the target is NYU1423 envelope protein (HIV-1).
The target of assay [4] is MACS#4 envelope protein (HIV-1).
The target in assay [5] is VI1249 envelope protein (HIV-1).
Assay [6] concerns the target VI1793 envelope protein (HIV-1).
The target in assay [7] is 24/008 envelope protein (HIV-1).
Assay [8] deals with VI843 envelope protein (HIV-1).
The target in assay [9] is VI1399 envelope protein (HIV-1).
The target of assay [10] is VI1273 envelope protein (HIV-1).
Assay [11] concerns the target 93BR029 envelope protein (HIV-1).
The target of assay [12] is GXE-14 envelope protein (HIV-1).
Assay [13] addresses R2 envelope protein (HIV-1).
Assay [14] deals with CA1 envelope protein (HIV-1).
Assay [15] deals with 14/00/4 envelope protein (HIV-1).
Assay [16] has as its target VI423 envelope protein (HIV-1).
Assay [17] addresses LY109(N662T) mutant Env (HIV-1).
For assay [18], the target named is NYU1423 (T662) mutant Env (HIV-1).
In assay [19] the target is 14/00/4 (A662) mutant Env (HIV-1).
The target of assay [20] is NYU1026 (T662) mutant Env (HIV-1).
The target of assay [21] is NYU1026 envelope protein (HIV-1).

On to 2G12 (antibody), for which the neutralization, 50% inhibitory concentration in [1] was more than 50 µg/mL; in [2], more than 25 µg/mL; in assay [3] it was 25 µg/mL; in [4], 4.69 µg/mL; in assay [5], more than 50 µg/mL; in assay [6] it was 6.25 µg/mL. In addition, the neutralization, 50% inhibitory concentration in assay [7] was 0.78 µg/mL; in assay [8], 6.25 µg/mL; in assay [9] it was 50 µg/mL; in assay [10], 9.38 µg/mL; in [11], 18.8 µg/mL; in assay [12], more than 50 µg/mL. Moreover, the neutralization, 50% inhibitory concentration in [13] is more than 50 µg/mL; in assay [14], more than 50 µg/mL; in assay [15], more than 50 µg/mL; in assay [16] it was 25 µg/mL.
For Mab 2F5 (antibody), the neutralization, 50% inhibitory concentration in [1] worked out at 1.17 µg/mL; in [2], 6.64 µg/mL; in assay [3] it was 25 µg/mL; in assay [4] it was 3.13 µg/mL; in assay [5] it was 0.98 µg/mL; in [6] it was 1.17 µg/mL. Also, the neutralization, 50% inhibitory concentration in [7] is more than 50 µg/mL; in [8] it was more than 50 µg/mL; in assay [9], 1.56 µg/mL; in [10], 3.13 µg/mL; in assay [11] it was 0.39 µg/mL; in assay [12] it was 3.13 µg/mL. For the same substance, the neutralization, 50% inhibitory concentration in assay [13] is 0.78 µg/mL; in [14] it was more than 12.5 µg/mL; in assay [15] it was less than 0.39 µg/mL; in assay [16], 1.96 µg/mL. Further, the Mab ID50 (neutralization) amounted to 3.1 µg/mL in [2], 25 µg/mL in assay [3], 0.39 µg/mL in assay [17] and 12.5 µg/mL in assay [18]. The neutralization ID50 in [3] was 17.7 µg/mL; in assay [18], 10.4 µg/mL; in assay [19], 6.25 µg/mL; in [20], 0.31 µg/mL; in assay [15], 0.45 µg/mL; in [21], 3.13 µg/mL.
Regarding Mab 4E10 (antibody), the neutralization, 50% inhibitory concentration was determined as 3.91 µg/mL in [1]; 18.8 µg/mL in [2]; 25 µg/mL in [3]; 7.82 µg/mL in [4]; 0.98 µg/mL in assay [5]; 3.13 µg/mL in assay [6]. Besides, the neutralization, 50% inhibitory concentration was 25 µg/mL in [7]; 12.5 µg/mL in assay [8]; 3.13 µg/mL in [9]; 6.25 µg/mL in assay [10]; 0.39 µg/mL in assay [11]; 13.3 µg/mL in [12]. Also, the neutralization, 50% inhibitory concentration came to 3.13 µg/mL in assay [13], 12.5 µg/mL in [14], 1.96 µg/mL in [15] and 6.25 µg/mL in assay [16]. The Mab ID50 (neutralization) in assay [2] is 12.5 µg/mL; in assay [3], 25 µg/mL; in assay [17], 0.78 µg/mL; in [18] it was 12.5 µg/mL. The neutralization ID50 in assay [19] was 9.34 µg/mL; in assay [20], 0.78 µg/mL; in [15], 0.9 µg/mL; in assay [21], 10.4 µg/mL.
On to X5 (antibody), for which the neutralization, 50% inhibitory concentration was more than 25 µg/mL in [1]; more than 25 µg/mL in [2]; 25 µg/mL in [3]; 25 µg/mL in assay [4]; 25 µg/mL in assay [5]; more than 25 µg/mL in [6]. For the same substance, the neutralization, 50% inhibitory concentration was more than 25 µg/mL in assay [7]; more than 25 µg/mL in [8]; less than 25 µg/mL in [9]; more than 25 µg/mL in assay [10]; less than 25 µg/mL in assay [11]; more than 25 µg/mL in assay [12]. The neutralization, 50% inhibitory concentration in [13] is less than 6.25 µg/mL; in assay [14] it was more than 25 µg/mL; in [15], more than 25 µg/mL; in [16], less than 6.25 µg/mL.
For Z13 (antibody), the neutralization, 50% inhibitory concentration in assay [1], in [2], in [4], in assay [5], in [6] and in [7] was more than 25 µg/mL each time. In addition, the neutralization, 50% inhibitory concentration in assay [8], in assay [9], in assay [10], in assay [11], in assay [12] and in assay [13] was more than 25 µg/mL each time. The neutralization, 50% inhibitory concentration in [14], in assay [15] and in assay [16] was more than 25 µg/mL each time.
Take huMab IgG1 b12 (antibody): the neutralization, 50% inhibitory concentration in assay [1] is more than 100 µg/mL; in assay [2], 100 µg/mL; in assay [3] it was more than 100 µg/mL; in assay [4] it was 1.56 µg/mL; in [5], 1.56 µg/mL; in [6] it was more than 100 µg/mL. In addition, the neutralization, 50% inhibitory concentration is more than 100 µg/mL in [7]; 50 µg/mL in [8]; 0.78 µg/mL in assay [9]; 9.38 µg/mL in assay [10]; more than 100 µg/mL in [11]; 25 µg/mL in [12]. Also, the neutralization, 50% inhibitory concentration in assay [13] was 25 µg/mL; in [14] it was more than 100 µg/mL; in assay [15] it was more than 100 µg/mL; in assay [16], 31.2 µg/mL.
With “two-domain soluble CD4 (from UniProt P01730 26-208) (receptor)”, the neutralization, 50% inhibitory concentration is more than 50 µg/mL in assay [1]; more than 25 µg/mL in assay [2]; 25 µg/mL in [3]; 1.56 µg/mL in assay [4]; 3.13 µg/mL in [5]; 25 µg/mL in assay [6]. In addition, the neutralization, 50% inhibitory concentration in [7] was 4.69 µg/mL; in assay [8], more than 50 µg/mL; in assay [9] it was 6.25 µg/mL; in assay [10], more than 50 µg/mL; in [11], less than 0.39 µg/mL; in assay [12], 9.34 µg/mL. The neutralization, 50% inhibitory concentration in assay [13] is 0.78 µg/mL; in [14], less than 0.39 µg/mL; in [15], 0.59 µg/mL; in [16] it was 50 µg/mL.
